B1: TPR t1 (parent)
chain: GACCAAUCUGCCCUCAGAGCUCGAGAACAUCUUCGGAUGCAGAGGAGGCAGGCUUCGGUGGCGCGAUAGCGCCAACGUCCUCAACCUCCAAUGCAUCCCACCACAUGAUGAUGCCUGAAGAGCCUUGGUUUUUUG

Variants of: B1
Assay: polymerase ribozyme fitness, log enrichment relative to wild type (log ratio); higher = more active; in vitro selection for triplet polymerase activity
Method in brief: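 One round of in vitro selection, in triplicate, was applied to PCR-built, transcribed mutant libraries of each subunit of a heterodimeric triplet polymerase ribozyme. The steps were annealing with a biotinylated primer, partner subunit and triplets, incubation frozen at −7 °C, gel excision of extended constructs, streptavidin-bead capture and RT-PCR. Fitness is the logarithm, base 2, of genotype enrichment over wild-type enrichment from inverse-variance-weighted replicate averages of Illumina-sequenced inputs and outputs, keeping genotypes with ≥10 input reads and ≥1 read per output.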

Variant	polymerase ribozyme fitness (log ratio)
C28U C73A	-2.23
U30A A37U	-4.9
U32C C76U A90U	-2.2
U33A G36C C72U	-4.02
C31A A37G C80G C86U U92C A105U A111U	-7.03
U33C A37C G42U G69U A111C C115A G127C U133G	-5.26
U33C A37C	-6.92
C28A U78C A91U U106A G110U	0.263
C31U G36U C73U C82A C86G G113U U133A	-6.04
U30A G48C G57A C124G	-4.73
U30C G45U	-4.52
U32C A41U G45C C115G	-5.44
A29G A74U	-1.73
C28U G44U C62U G63C G110C U126A U132C	-4.61
C31U G127C	-3.6
A29U G61C C72A	-1.68
A29C A75G U78G	-2.56
A29C C40U A41U C124U	-3.03
A29G G48U G57C C73U	-1.71
C28G C34G G110A G117U	-5.7
C28G U54A G122U	-2.85

Variant	polymerase ribozyme fitness (log ratio)
C28G A83G U130C	-4.34
C31A C56A C98A	-5.09
U32G C34G C64U C85A G110U	-6.37
A29U A119G	-0.662
C28U C70A	-4.5
A29U C56U A74U A100C	-3.55
U32G C62A C102A A111G	-6.35
C28U C56U	-1.85
A29C G36U G45U	-4.64
U32C A41U C124G G128A	-1.01
C31G C70U C82G G117C	-7.1
U32C G48U C56A G71U U112G	-4.24
A29U G61C	-2.79
C31A C73G	-5.21
U30A C73A	-5.19
C31A G61A C88U	-5.76
C28G C40U G57U G63C	-4.66
C31A A37U G60A A83C	-7.59
A29G G57U G128C	-3.73
C31U G120C	-2.93
A29G G47C C53A U59A	-2.24

Variant	polymerase ribozyme fitness (log ratio)
C31U C85G	-5.19
A29G G58C	-1.5
A29U A43C G44U C53G A111U U134A	-0.68
A29G G63C C104U U106G	-1.63
U32G C49A G63C G117A	-6.8
U32A A46U U54A G57C G58C C70U A121G	-6.21
A29U G69U C123A	-0.777
A29U U38G G45U G120A U129A	-4.85
A29G A46U G69U C86U	-2.23
U32C A83G U87A U106A	-2.71
A29C G44C U92C	-5.1
A29U C79A	-3.06
A29G C73A C76A	-3.61
C31U G61U A91C	-5.51
C31U G135U	-4.94
U30C G61A C79G	-4.69
C31G G69U A111C U112A G117A	-6.69
C31U C70U	-4.33
A29G C102A	-4.16
C28G C73U C97U	-3.34
C31G C94G G113A	-5.38

Variant	polymerase ribozyme fitness (log ratio)
U32C C40U C124A	1.21
A29U G117C	-3.48
U32A G61U	-2.74
C31U G113A	-3.94
U30G U54A U112C	-5.05
C28U C80A	-5.53
C28U C49A G61U C86U	-2.72
A29G C101A A118U	-3.6
C28U U32A C70U G120C	-6.64
U30C G52C	-3.38
C31G U112A	-5.33
U33A C72G A74C G127C	-7.04
C28U C115U	-3.6
C28U G110A	0.874
A29U C56G G58C G77A C88U G120C C123G U129A	-5.14
C28U A41U G48A	-5.18
A29G C104U U112G	1.06
U32C G48A C102A C123U	-2.5
A29G G52U	-1.55
A29U U54G	-2.02
U30C G44U A50G C88U	-2.96

— the RNAGym collection of RNA variant scans (doi:10.1073/pnas.2313332121)
